Laboratory results from article PMC8412950.

Molecular target: NRC3 NB-ARC domain (NRC3^NB-ARC, Val-152 to Ser-507) (Nicotiana benthamiana)
Assay: SEC

Substance: Recombinant SS15 protein (Ser-25 to Ile-246, lacking signal peptide) (domain or fragment)
- stoichiometry N: 1
